# Substitutions are numbered along the chain they refer to.
# T1: mouse FcγRII extracellular domain, C-terminally His-tagged (mouse, UniProt P08101 30-210)
# T1 construct: the whole entry is named; also called mFcγRII; mFcgRII
# T1 sequence: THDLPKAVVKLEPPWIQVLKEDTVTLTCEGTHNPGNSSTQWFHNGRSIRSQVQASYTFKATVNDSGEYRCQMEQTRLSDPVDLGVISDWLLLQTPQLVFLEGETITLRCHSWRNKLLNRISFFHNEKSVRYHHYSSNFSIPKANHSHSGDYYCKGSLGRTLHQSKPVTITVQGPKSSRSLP
# T2: mouse FcγRIII extracellular domain, C-terminally His-tagged (mouse, UniProt P08508 31-215)
# T2 construct: the whole entry is named; also called mFcγRIII; mFcgRIII
# T2 chain: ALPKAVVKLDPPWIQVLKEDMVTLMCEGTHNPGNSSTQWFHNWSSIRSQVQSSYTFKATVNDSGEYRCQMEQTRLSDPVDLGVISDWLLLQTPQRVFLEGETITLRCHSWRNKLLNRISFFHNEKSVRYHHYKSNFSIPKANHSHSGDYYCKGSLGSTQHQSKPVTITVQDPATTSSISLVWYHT
# B1: H237-MB448/MRAL-k0 (antibody, mouse IgG1, kappa)
# heavy: QVQLQESGPGLVKPSETLSLTCAVSGHSISHDHAWSWVRQPPGEGLEWIGFISYSGITNYNPSLQGRVTISRDNSKNTLYLQMNSLRAEDTAVYYCARSLARTTAMDYWGEGTLVTVSSAKTTPPSVYPLAPGSAAQTNSMVTLGCLVKGYFPEPVTVTWNSGSLSSGVHTFPAVLQSDLYTLSSSVTVPSSTWPSETVTCNVAHPASSTKVDKKIVPRDCGCKPCICETYEVEDVFIFPPKPKDVLTITLTPKVTCVVVDISKDDPEVQFSWFVDDVEVHTAQTQPREEQFNSTFRSVSELPIMHQDWLNGKEFKCRVDSAAFPAPIEKTISKTKGRPKAPQVYTIPPPKEQMAKDKVSLTCMITDFFPEDITVEWQWNGQPAENYKNTQPIMDTDGSYFVYSKLNVQKSNWEAGNTFTCSVLHEGLHNHHTEKSLSHSPGK
# light: not shown
# notes: copies: 2 + 2
# B2: H237-MB449/MRAL-k0 (antibody, mouse IgG1, kappa)
# heavy: B1 heavy with D320L
# light: not shown
# notes: copies: 2 + 2
# B3: H237-MB450/MRAL-k0 (antibody, mouse IgG1, kappa)
# heavy: B1 heavy with D320M
# light: not shown
# notes: copies: 2 + 2
# B4: H237-MB451/MRAL-k0 (antibody, mouse IgG1, kappa)
# heavy: B1 heavy with D320N, A326G
# light: not shown
# notes: copies: 2 + 2
# B5: H237-MB452/MRAL-k0 (antibody, mouse IgG1, kappa)
# heavy: B1 heavy with D320N, A326Q
# light: not shown
# notes: copies: 2 + 2
# B6: H237-MB453/MRAL-k0 (antibody, mouse IgG1, kappa)
# heavy: B1 heavy with D320N, P327D
# light: not shown
# notes: copies: 2 + 2
# B7: H237-MB454/MRAL-k0 (antibody, mouse IgG1, kappa)
# heavy: B1 heavy with D320N, P327F
# light: not shown
# notes: copies: 2 + 2
# B8: H237-MB455/MRAL-k0 (antibody)
# heavy: B1 heavy with D320N, P327Y
# light: not shown
# notes: copies: 2 + 2
# B9: H237-MB456/MRAL-k0 (antibody, mouse IgG1, kappa)
# heavy: B1 heavy with D320N, E329N
# light: not shown
# notes: copies: 2 + 2
# B10: H237-MB457/MRAL-k0 (antibody, mouse IgG1, kappa)
# heavy: B1 heavy with D320N, E329Y
# light: not shown
# notes: copies: 2 + 2
# B11: H237-MB458/MRAL-k0 (antibody, mouse IgG1, kappa)
# heavy: B1 heavy with D320N, E329V
# light: not shown
# notes: copies: 2 + 2
# B12: H237-MB459/MRAL-k0 (antibody, mouse IgG1, kappa)
# heavy: B1 heavy with D320N, T331N
# light: not shown
# notes: copies: 2 + 2
# B13: H237-MB460/MRAL-k0 (antibody, mouse IgG1, kappa)
# heavy: B1 heavy with D320N, T331Y
# light: not shown
# notes: copies: 2 + 2
# B14: H237-MB461/MRAL-k0 (antibody, mouse IgG1, kappa)
# heavy: B1 heavy with D320N, S333I
# light: not shown
# notes: copies: 2 + 2
# B15: H237-MB462/MRAL-k0 (antibody, mouse IgG1, kappa)
# heavy: B1 heavy with D320N, S333K
# light: not shown
# notes: copies: 2 + 2
# B16: H237-MB463/MRAL-k0 (antibody, mouse IgG1, kappa)
# heavy: B1 heavy with D320N, S333W
# light: not shown
# notes: copies: 2 + 2
# B17: H237-MB464/MRAL-k0 (antibody, mouse IgG1, kappa)
# heavy: B1 heavy with S263A, D320N
# light: not shown
# notes: copies: 2 + 2
# B18: H237-MB465/MRAL-k0 (antibody, mouse IgG1, kappa)
# heavy: B1 heavy with Q291L, D320N
# light: not shown
# notes: copies: 2 + 2
# B19: H237-MB466/MRAL-k0 (antibody, mouse IgG1, kappa)
# heavy: B1 heavy with D320N, A322D
# light: not shown
# notes: copies: 2 + 2
# B20: H237-MB467/MRAL-k0 (antibody, mouse IgG1, kappa)
# heavy: B1 heavy with D320N, A323G
# light: not shown
# notes: copies: 2 + 2
# B21: H237-MB477/MRAL-k0 (antibody, mouse IgG1, kappa)
# heavy: B1 heavy with T230P, Y231N, S263A, D320N
# light: not shown
# notes: copies: 2 + 2
# B22: H237-MB478/MRAL-k0 (antibody, mouse IgG1, kappa)
# heavy: B1 heavy with T230P, Y231N, Q291L, D320N
# light: not shown
# notes: copies: 2 + 2
# B23: H237-MB479/MRAL-k0 (antibody, mouse IgG1, kappa)
# heavy: B1 heavy with T230P, Y231N, D320N, A322D
# light: not shown
# notes: copies: 2 + 2
# B24: H237-MB480/MRAL-k0 (antibody, mouse IgG1, kappa)
# heavy: B1 heavy with T230P, Y231N, D320N, K330R
# light: not shown
# notes: copies: 2 + 2
# B25: H237-MB490/MRAL-k0 (antibody, mouse IgG1, kappa)
# heavy: B1 heavy with T230P, Y231N, S294L, D320N
# light: not shown
# notes: copies: 2 + 2
# Target: T1, mouse FcγRII extracellular domain, …
# Assay: SPR Biacore T200, KD ratio
# From the text: (§1) The antibody H chain variable region used was the variable region H237 (SEQ ID NO: 1) of the H chain VH3-IgG1 of the anti-IL-6 receptor antibody Fv4-IgG1 described in WO2009/125825. The antibody L chain commonly used was the L chain MRAL-k0 (SEQ ID NO: 2) of the anti-IL-6 receptor antibody tocilizumab. […] The resulting variant groups were designated as MB397 variants and MB390 variants, respectively. These variants were expressed and purified by the method of Reference Example 1 and evaluated for their binding to mFcγRII and mFcγRIII by the method of Reference Example 2 using Biacore T200.
# (§2) Each altered antibody was analyzed for its interaction with each Fcγ receptor prepared above using Biacore T100 (GE Healthcare Japan Corp.), Biacore T200 (GE Healthcare Japan Corp.), Biacore A100, or Biacore 4000. The running buffer used was HBS-EP+ (GE Healthcare Japan Corp.). The assay temperature was set to 25° C. The sensor chips used were chips prepared by immobilizing Protein L (ACTIGEN or BioVision) onto Series S Sensor Chip CM5 (GE Healthcare Japan Corp.) or Series S Sensor Chip CM4 (GE Healthcare Japan Corp.) by the amine coupling method.
# (§3) In order to calculate the KD value of each altered antibody for FcγR, kinetic analysis was conducted according to the following method: first, the antibody of interest was captured onto any of these chips and allowed to interact with mFcγR diluted with a running buffer. For the obtained sensorgram, the assay results were globally fit into the 1:1 Langmuir binding model using Biacore Evaluation Software to calculate an association rate constant ka (L/mol/s) and a dissociation rate constant kd (1/s). From these values, the dissociation constant KD (mol/L) was calculated.
Binder,relative mFcγRII-binding activity (MB397 = 1) [fold],relative mFcγRII-binding activity (mIgG1 = 1) [fold],relative mFcγRII-binding activity (MB390 = 1) [fold]
B1,0.95,525,
B2,0.28,154,
B3,0.68,377,
B4,0.11,60.1,
B5,0.08,46.9,
B6,0.21,118,
B7,0.53,295,
B8,0.6,332,
B9,0.12,67.9,
B10,0.36,202,
B11,0.46,253,
B12,0.51,285,
B13,0.6,332,
B14,0.45,247,
B15,0.39,214,
B16,0.55,307,
B17,0.16,88.5,
B18,0.35,192,
B19,0.81,449,
B20,0.49,271,
B21,,196,0.38
B22,,254,0.49
B23,,734,1.41
B24,,511,0.98
B25,,1130,2.16

# Target: T2, mouse FcγRIII extracellular domain, …
# Assay: SPR Biacore T200, KD ratio
# From the text: as §1, §2, §3
Binder,relative mFcγRIII-binding activity (MB397 = 1) [fold],relative mFcγRIII-binding activity (mIgG1 = 1) [fold],relative mFcγRIII-binding activity (MB390 = 1) [fold]
B1,1.3,25.1,
B2,0.56,10.7,
B3,1.18,22.7,
B4,0.5,9.7,
B5,0.23,4.4,
B6,0.49,9.5,
B7,1.04,20,
B8,1.38,26.6,
B9,0.23,4.5,
B10,0.7,13.6,
B11,0.81,15.7,
B12,1.06,20.5,
B13,1.1,21.2,
B14,0.97,18.8,
B15,0.78,15.1,
B16,1.12,21.6,
B17,0.39,7.6,
B18,0.77,15,
B19,1.66,32,
B20,0.99,19.2,
B21,,3,0.25
B22,,4.7,0.39
B23,,13.8,1.16
B24,,10.2,0.85
B25,,34.6,2.9

# Reference: US20150203577A1 (Chugai, published 2015)
